Where a name gives a salt, the structure may show the parent alone.
Tests used:
[1] = system: Trm10 (wild type) (Saccharomyces cerevisiae); assay: fluorescence anisotropy; conditions: unmodified transcript, FA: 15 nM labeled tRNA, 50-300 nM enzyme, 30 min at room temperature, buffer as in ref 17 (not given), EMSA: 4 uM tRNA, 0-10 uM protein, 30 C 30 min
[2] = system: Trm10-KRR (Saccharomyces cerevisiae); assay: fluorescence anisotropy; conditions: unmodified transcript, FA: 15 nM labeled tRNA, 50-300 nM enzyme, 30 min at room temperature, buffer as in ref 17 (not given), EMSA: 4 uM tRNA, 0-10 uM protein, 30 C 30 min
Trm10 = molecular target: T1, Trm10 (Saccharomyces cerevisiae, UniProt Q12400); assay: electrospray mass spectrometry of RNase T1 fragments (+[…] Da adduct); type: biochemical; conditions: cosubstrate with tRNA-Gly-GCC; 1 h, 37 °C; covalent to tRNA G9, not to the enzyme
T1 construct: full-length, N-terminal 6xHis tag, plasmid pJEJ12-3, expressed in E. coli BL21(DE3) pLysS; monomer (printed PDB 4JWJ covers the C-terminal domain only)
T1 sequence (Q12400 1-293): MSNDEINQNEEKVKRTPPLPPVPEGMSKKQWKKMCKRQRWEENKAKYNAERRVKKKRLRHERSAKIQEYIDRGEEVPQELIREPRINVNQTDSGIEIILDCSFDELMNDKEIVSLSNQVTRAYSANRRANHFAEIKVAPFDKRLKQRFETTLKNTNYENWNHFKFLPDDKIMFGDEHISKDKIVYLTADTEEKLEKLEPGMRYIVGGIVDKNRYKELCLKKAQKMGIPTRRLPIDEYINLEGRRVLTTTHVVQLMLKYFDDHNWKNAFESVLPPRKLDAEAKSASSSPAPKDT

| Compound | Kd [1] [µM] | Kd ([1]; separate data set, differs from Fig 4C) [µM] | Kd [2] [µM] | electrospray mass spectrometry of RNase T1 fragments (+393 Da adduct) (Trm10) |
| --- | --- | --- | --- | --- |
| tRNAVal-UAC, FA transcript | 0.096 |  |  |  |
| tRNAGly-GCC, 5'-fluorescein transcript | 0.02 | 0.1 | 0.034 |  |
| tRNALeu-CAA, FA transcript | 0.038 |  |  |  |
| Nc1ncnc2c1ncn2[C@@H]1O[C@H](CN(CCI)CC[C@H](N)C(=O)O)[C@@H](O)[C@H]1O [NM6, 5′-(diaminobutyric acid)-N-iodoethyl-5′-deoxyadenosine ammoniumhydrochloride] |  |  |  | NM6 was confirmed to be a suitable cosubstrate for tRNA modification by Trm10 using mass spectrometry |

Reference: PMC10704376, “tRNA m^1G9 modification depends on substrate-specific RNA conformational changes induced by the methyltransferase Trm10” (The Journal of Biological Chemistry, 2023)
